Laboratory results reported in publication doi:10.1101/2024.09.12.612777 (bioRxiv, 2024).

How the values were obtained:
Test in all cases: pull-down
[1] = molecular target: T1, AL4 (recombinant, pull-down) (Arabidopsis thaliana, UniProt O81488 1-255)
T1 sequence (looked up): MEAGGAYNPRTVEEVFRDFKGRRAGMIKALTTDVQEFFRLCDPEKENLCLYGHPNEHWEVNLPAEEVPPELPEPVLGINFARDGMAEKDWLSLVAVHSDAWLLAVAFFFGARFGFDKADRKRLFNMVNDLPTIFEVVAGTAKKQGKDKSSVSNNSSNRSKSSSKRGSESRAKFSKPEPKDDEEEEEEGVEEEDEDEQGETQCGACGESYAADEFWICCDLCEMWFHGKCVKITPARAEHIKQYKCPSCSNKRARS

[2] = molecular target: T2, BRM-3 (C-terminal domain of the BAS-type SWI/SNF chromatin remodeler BRM, 1,596-2,193 aa) (Arabidopsis thaliana, UniProt Q6EVK6 1596-2193)
T2 sequence (looked up): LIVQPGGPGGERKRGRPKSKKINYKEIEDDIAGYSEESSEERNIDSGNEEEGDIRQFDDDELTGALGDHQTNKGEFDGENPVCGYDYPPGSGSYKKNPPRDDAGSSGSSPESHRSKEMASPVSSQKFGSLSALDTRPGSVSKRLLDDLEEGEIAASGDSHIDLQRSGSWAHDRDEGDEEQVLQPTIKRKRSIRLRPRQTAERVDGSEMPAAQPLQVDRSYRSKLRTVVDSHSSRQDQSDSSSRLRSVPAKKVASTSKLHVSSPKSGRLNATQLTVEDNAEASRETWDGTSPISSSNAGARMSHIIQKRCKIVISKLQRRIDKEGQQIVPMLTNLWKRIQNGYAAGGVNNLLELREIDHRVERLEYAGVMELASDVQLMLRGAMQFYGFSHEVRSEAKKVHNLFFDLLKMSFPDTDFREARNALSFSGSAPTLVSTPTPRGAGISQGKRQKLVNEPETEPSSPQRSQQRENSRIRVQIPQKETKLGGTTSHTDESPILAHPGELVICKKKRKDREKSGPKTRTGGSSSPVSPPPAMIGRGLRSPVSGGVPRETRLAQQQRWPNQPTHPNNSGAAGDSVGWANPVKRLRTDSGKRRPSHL

[3] = molecular target: T3, MINU2-3 (C-terminal domain of the MAS catalytic enzyme MINU2, 677-1,064 aa) (Arabidopsis thaliana, UniProt F4K128 677-1064)
T3 sequence (looked up): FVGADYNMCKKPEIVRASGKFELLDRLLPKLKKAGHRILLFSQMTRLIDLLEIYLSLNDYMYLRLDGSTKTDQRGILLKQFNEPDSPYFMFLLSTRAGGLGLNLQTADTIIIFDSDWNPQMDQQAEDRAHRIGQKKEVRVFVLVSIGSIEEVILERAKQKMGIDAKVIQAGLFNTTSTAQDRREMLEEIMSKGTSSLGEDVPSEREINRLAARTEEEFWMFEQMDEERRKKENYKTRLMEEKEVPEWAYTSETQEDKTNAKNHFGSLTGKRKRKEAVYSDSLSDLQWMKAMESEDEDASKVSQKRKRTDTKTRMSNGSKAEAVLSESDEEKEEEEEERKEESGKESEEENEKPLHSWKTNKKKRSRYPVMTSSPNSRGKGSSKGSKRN

[4] = molecular target: T4, HDA19 (HDAC catalytic subunit) (Arabidopsis thaliana, UniProt O22446 1-501)
T4 sequence (looked up): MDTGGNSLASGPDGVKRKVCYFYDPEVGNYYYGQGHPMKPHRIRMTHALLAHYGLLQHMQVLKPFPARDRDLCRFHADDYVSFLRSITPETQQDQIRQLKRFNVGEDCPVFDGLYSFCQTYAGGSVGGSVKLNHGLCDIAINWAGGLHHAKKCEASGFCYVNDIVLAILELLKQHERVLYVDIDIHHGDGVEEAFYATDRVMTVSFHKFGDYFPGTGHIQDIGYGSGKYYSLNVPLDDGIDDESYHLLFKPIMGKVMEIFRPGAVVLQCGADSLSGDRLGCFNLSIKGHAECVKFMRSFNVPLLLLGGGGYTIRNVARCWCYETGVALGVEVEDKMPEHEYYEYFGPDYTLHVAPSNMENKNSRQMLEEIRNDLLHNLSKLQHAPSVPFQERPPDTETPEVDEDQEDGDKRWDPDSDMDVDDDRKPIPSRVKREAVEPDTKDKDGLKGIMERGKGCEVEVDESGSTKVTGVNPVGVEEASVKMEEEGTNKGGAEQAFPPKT

[5] = molecular target: T5, UBP5 (H2A deubiquitinase, subunit of the PEAT complex) (Arabidopsis thaliana, UniProt O22207 1-924)
T5 sequence (looked up): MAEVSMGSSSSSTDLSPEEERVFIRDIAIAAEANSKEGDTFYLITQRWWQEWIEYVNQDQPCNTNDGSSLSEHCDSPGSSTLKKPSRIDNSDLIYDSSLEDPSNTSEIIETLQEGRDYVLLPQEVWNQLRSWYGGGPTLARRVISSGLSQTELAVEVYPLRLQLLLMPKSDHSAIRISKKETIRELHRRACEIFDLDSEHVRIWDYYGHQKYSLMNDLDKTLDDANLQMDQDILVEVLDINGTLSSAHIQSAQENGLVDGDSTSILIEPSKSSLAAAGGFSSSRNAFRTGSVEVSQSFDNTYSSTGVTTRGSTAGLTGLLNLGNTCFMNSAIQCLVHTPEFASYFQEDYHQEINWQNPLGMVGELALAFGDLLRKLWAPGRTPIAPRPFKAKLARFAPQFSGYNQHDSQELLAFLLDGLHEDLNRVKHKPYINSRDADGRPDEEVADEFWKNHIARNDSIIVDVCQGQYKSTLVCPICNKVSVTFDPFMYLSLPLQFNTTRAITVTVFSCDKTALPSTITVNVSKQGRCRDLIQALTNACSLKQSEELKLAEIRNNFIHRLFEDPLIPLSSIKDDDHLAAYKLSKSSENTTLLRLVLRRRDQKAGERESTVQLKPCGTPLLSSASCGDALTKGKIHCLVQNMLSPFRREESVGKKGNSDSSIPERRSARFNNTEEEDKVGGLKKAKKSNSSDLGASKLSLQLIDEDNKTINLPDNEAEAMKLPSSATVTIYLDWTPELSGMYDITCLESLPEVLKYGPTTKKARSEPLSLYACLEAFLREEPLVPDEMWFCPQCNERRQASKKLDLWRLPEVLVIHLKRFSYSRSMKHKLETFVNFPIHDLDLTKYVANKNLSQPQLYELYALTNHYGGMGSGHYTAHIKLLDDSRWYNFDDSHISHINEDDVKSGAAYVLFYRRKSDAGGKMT

[6] = molecular target: T6, RING1A (recombinant, pull-down) (Arabidopsis thaliana, UniProt Q9FKW0 1-522)
T6 sequence (looked up): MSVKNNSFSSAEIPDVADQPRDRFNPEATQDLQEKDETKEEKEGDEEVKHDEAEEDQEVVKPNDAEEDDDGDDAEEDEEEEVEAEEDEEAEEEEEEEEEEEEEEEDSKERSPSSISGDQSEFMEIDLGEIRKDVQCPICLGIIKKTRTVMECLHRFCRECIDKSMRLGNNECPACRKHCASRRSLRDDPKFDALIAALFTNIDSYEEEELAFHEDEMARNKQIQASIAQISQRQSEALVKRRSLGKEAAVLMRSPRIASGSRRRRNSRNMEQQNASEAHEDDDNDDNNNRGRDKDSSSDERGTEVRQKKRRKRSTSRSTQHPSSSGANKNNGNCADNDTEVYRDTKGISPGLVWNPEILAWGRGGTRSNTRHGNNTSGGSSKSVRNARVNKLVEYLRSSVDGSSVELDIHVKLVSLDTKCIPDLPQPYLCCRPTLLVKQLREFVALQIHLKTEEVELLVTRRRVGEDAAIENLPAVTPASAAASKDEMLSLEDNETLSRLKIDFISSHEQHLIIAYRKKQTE

[7] = molecular target: T7, GATA1 (recombinant, pull-down) (Arabidopsis thaliana, UniProt Q8LAU9 1-274)
T7 sequence (looked up): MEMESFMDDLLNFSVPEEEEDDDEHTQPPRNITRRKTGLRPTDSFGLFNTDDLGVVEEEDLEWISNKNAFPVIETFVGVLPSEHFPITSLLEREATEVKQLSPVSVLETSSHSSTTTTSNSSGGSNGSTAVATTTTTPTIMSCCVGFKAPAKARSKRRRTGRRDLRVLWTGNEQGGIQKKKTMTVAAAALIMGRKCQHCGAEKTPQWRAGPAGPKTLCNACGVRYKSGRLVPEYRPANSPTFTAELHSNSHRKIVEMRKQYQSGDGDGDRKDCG

[8] = molecular target: T8, VAL1 (recombinant, pull-down) (Arabidopsis thaliana, UniProt Q8W4L5 1-790)
T8 sequence (looked up): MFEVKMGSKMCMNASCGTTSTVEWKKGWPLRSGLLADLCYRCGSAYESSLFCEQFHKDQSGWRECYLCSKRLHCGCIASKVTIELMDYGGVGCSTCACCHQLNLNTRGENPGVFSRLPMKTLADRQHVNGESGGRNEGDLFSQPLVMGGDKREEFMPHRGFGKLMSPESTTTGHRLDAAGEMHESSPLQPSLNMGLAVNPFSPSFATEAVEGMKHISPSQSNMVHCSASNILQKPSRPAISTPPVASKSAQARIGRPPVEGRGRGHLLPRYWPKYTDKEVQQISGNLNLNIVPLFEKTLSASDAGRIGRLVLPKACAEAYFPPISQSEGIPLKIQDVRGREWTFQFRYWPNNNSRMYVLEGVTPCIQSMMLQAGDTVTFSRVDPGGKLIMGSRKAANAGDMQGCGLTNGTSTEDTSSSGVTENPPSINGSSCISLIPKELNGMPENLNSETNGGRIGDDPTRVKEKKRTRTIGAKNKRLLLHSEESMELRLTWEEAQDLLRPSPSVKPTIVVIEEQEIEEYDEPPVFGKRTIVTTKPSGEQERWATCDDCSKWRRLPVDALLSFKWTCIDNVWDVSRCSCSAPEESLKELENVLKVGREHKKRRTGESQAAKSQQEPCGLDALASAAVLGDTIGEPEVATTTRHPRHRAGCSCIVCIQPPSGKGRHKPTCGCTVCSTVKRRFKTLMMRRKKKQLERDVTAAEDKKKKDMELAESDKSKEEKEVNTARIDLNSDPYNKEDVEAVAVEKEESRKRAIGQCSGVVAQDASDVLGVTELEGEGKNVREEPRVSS

[9] = molecular target: ZF2 (recombinant, pull-down) (Arabidopsis thaliana, UniProt Q9SSW2 1-273)

Measured: binding result

Sequence of ZF2 (recombinant, pull-down) (Q9SSW2 whole entry): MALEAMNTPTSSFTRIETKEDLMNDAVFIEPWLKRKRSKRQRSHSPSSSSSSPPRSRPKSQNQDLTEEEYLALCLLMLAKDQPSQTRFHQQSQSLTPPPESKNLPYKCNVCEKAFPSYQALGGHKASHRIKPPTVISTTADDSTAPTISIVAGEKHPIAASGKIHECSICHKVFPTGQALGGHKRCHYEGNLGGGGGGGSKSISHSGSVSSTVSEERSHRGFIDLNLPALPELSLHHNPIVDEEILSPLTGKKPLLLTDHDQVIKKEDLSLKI

B1: AL2 (recombinant, pull-down) (natural protein, Arabidopsis thaliana, UniProt Q9SRM4 1-246, looked up)
chain: MAAAAVSSNPRTVEEIFKDYSARRAALLRALTKDVDDFYSQCDPEKENLCLYGHPNESWEVNLPAEEVPPELPEPALGINFARDGMQRKDWLSLVAVHSDCWLLSVSFYFGARLNRNERKRLFSLINDLPTLFDVVTGRKAMKDNKPSSDSGSKSRNGTKRSIDGQTKSSTPKLMEESYEEEEEEDEHGDTLCGSCGGHYTNEEFWICCDVCERWYHGKCVKITPAKAESIKQYKCPPCCAKKGRQ
binds: [1] | [2] | [3] | [4] | [5] | [6] | [7] | [8] | [9]
